Reference: patent publication US20230250135A1

Molecular target: trimeric stem polypeptides with H7 like residues at the beta2/beta3 loop, A-helix and lower part of the stem (FIG. 13A)
Assay: Binding-AlphaLISA, Expi293F supernatant, normalized to UFV172561

Sequence of CR9114 (antibody) (VH): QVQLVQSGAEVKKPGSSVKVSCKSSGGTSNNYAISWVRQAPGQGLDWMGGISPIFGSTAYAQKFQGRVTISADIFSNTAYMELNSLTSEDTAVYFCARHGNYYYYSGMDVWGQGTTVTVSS
Sequence of CR9114 (antibody) (VL): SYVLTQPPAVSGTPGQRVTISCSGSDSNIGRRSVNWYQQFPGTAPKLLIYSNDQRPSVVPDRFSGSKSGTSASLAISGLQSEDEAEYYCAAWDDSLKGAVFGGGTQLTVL

**Q.** For CR9114 (antibody), which variation in antibody binding relative to reference UFV172561 is on record?
**A.** 20%
